Measured values: patent publication US20210030841A1 (KEROS THERAPEUTICS, published 2021)
One block for each binder: values may come before it.

Assays:
Experiment in all cases: SPR, Biacore 3000; receptor captured on chip, ligand in solution
[1] = target: T1, growth differentiation factor 11 (GDF11) (UniProt O95390 299-407)
T1 construct: the embodiments speak of human GDF-11
T1 sequence (looked up): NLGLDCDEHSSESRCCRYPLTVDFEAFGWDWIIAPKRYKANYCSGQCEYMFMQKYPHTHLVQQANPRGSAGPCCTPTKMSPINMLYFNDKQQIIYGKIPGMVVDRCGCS
Excerpt: (§1) The Biacore 3000 was used to measure the kinetics of the interactions between the ActRIIa variants and the ligands Activin A, Activin B, growth differentiation factor 11 (GDF11), and BMP-9. ActRIIa variants were transiently expressed in HEK293 cells and purified from the conditioned media using Protein-A Sepharose chromatography. The ActRIIa variants were immobilized on the chip (CM4 or CM5) with capture antibodies ([…]) in flow cells 2-4 to ensure proper orientation. Flow cell 1 was used as a reference cell to subtract any nonspecific binding and bulk effects. HBS-EP+ buffer from GE Healthcare™ was used as a running buffer. Each ligand was run in a concentration series at 40 μl/min to avoid mass transport effects. The data was analyzed using Scrubber2 by BioLogic™ Software to calculate the KD of each interaction (Table 5).

Activin A = target: T2, Activin A (UniProt P08476 311-426)
T2 construct: the embodiments speak of human activin A
T2 sequence (looked up): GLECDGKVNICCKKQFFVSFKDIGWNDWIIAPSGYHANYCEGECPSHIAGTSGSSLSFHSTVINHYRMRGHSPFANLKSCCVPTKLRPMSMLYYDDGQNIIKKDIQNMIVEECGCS
Excerpt: as §1

Activin B = target: T3, Activin B (UniProt P09529 293-407)
T3 construct: the embodiments speak of human activin B
T3 sequence (looked up): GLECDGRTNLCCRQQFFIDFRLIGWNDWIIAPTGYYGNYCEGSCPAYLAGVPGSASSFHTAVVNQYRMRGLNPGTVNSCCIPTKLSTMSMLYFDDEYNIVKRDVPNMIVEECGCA
Excerpt: as §1

BMP-9 = target: T4, BMP-9 (UniProt Q9UK05 320-429)
T4 construct: the embodiments speak of human BMP9; also called bone morphogenetic protein 9
T4 sequence (looked up): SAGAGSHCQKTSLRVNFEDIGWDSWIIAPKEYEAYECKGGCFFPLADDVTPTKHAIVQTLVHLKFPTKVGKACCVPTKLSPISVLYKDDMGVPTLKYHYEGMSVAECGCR
Excerpt: as §1

- binding result [1]: binds
B1: ActRIIa/b+ variant (SEQ ID NO: 150) (receptor, not shown: a dimerising Fc or GST)
chain: GAILGRSETQECLFYNANWELERTNQTGVERCEGEKDKRLHCYATWRNISGSIEIVAKGCWLDDFNCYDRTDCVETEENPQVYFCCCEGNMCNEKFSYFPEMEVTQPTS

- Kd (Activin A): 0.31 nM
- Kd (Activin B): 0.088 nM
- Kd [1]: 0.114 nM
- Kd (BMP-9): 17 nM
B2: ActRIIa/bΔ9 min variant (SEQ ID NO: 6) (receptor, not shown: a dimerising Fc or GST)
chain: AILGRSETQECLFYNANWELDRTNQTGVEPCEGEKDKRLHCFATWKNISGSIEIVKKGCWLDDINCYDRTDCVETKENPQVYFCCCEGNMCNEKFSYFPEMEVTQPTS
notes: Engineered variant of the human ActRIIa extracellular portion
